The text below walks through data of doi:10.1101/2021.02.16.431378.

In data set [1] the target is N-terminally 6xHis tagged HU-A (histidine-tagged E. coli HU-A) (E. coli K-12 sub-strain MG1655) (UniProt P0ACF0). Put plainly: SEC.
For data set [2] the target is unchanged. Nature of the data set: cross-linking.
Data set [3] shares this target. Nature of the data set: SEC. The source holds these as a separate data set.
In data set [4] the target is N-terminally 6xHis tagged HU-B (histidine-tagged E. coli HU-B) (E. coli K-12 sub-strain MG1655) (UniProt P0ACF4). Nature of the data set: cross-linking.
Data set [5] has the same target. Nature of the data set: SEC.
Data set [6] has the same target. Put plainly: cross-linking. This is another data set of the same source.
Data set [7] has the same target. Nature of the data set: cross-linking. The source holds these as a separate data set.
Data set [8] has the same target. Put plainly: SEC. The source holds these as a separate data set.
The target of data set [9] is N-terminally 6xHis-tagged HU-B co-expressed from pET-Duet-1 (E. coli K-12 sub-strain MG1655) (UniProt P0ACF4). Put plainly: SEC.
For data set [10] the target is unchanged. Put plainly: pull-down.
Data set [11] concerns the target T1, TmRITC-labelled histidine-tagged HU-B, P0ACF4.
T1 chain: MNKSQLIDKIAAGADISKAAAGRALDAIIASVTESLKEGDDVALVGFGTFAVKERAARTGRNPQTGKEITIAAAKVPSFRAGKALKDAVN
Put plainly: FRET or BRET.

In the next data set the target is 6xHis-HU-A (Escherichia coli K-12 MG1655, UniProt P0ACF0 1-90). Nature of the data set: EMSA.
In another data set the target is T2, 6xHis-HU-B (Escherichia coli K-12 MG1655, UniProt P0ACF4 1-90).
T2 sequence: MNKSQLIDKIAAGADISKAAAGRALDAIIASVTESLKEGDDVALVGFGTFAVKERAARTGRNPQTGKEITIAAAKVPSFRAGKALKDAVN
Nature of the data set: EMSA.

Where “and” joins values, the source holds several entries; their conditions need not be identical. Identical values can stand only once.

With “N-terminally 6xHis tagged HU-A (histidine-tagged E. coli HU-A) (from UniProt P0ACF0 1-90) (natural protein)”, the stoichiometry N in [1], in data set [2] and in [3] was 2 in each case.
Take “N-terminally 6xHis tagged HU-B (histidine-tagged E. coli HU-B) (from UniProt P0ACF4 1-90) (natural protein)”: the stoichiometry N in data set [4] is 2 and 4; in [5], 2; in data set [6] it was 2 and 4; in [7], 2 and 4; in data set [8], 2.
“N-terminally 6xHis-tagged HU-B co-expressed from pET-Duet-1 (from UniProt P0ACF4 1-90) (natural protein)” returned a stoichiometry N in [9] of 2.
Turning to “Tag-RFP fused to HU-A without a 6xHis tag (RFP-HU-A) (from UniProt P0ACF0 1-90) (natural protein)”, in [10], the heterodimer as percent of the total overexpressed HU population is under 5% and the percent of the total protein purified was under 10%. Further, in data set [9], the heterodimer as percent of the total overexpressed HU population was under 5%.

B1: FITC-labelled histidine-tagged HU-A (protein)
chain: MNKTQLIDVIAEKAELSKTQAKAALESTLAAITESLKEGDAVQLVGFGTFKVNHRAERTGRNPQTGKEIKIAAANVPAFVSGKALKDAVK
B1: the “percent heterodimers formed after mixing” value in data set [11] was “less than 5%”.

B2: 4WJ-DNA (Holliday junction) (structured_DNA)
DNA 1: CCCTATAACCCCTGCATTGAATTCCTGTCTGATAA
DNA 2: GTAGTCGTGATAGGTGCAGGGGTTATAGGG
DNA 3: AACAGTAGCTCTTAATTCGAGCTCGCGCCCTATCACGACTA
DNA 4: TTTATCAGACTGGAATTCAAGCGCGAGCTCGAATAAGAGCTACTGT
Turning to B2, the binding result in the data set with 6xHis-HU-A and in the data set with 6xHis-HU-B was “binds” throughout.
